Reference: the NTF2 design screens of Basanta et al. (2020)

Test: protease stability score; higher = more stable; yeast display proteolysis, trypsin and chymotrypsin;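 note: relative to predicted unfolded state with 0 unfolded-like and 1 meaning tenfold more protease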

First: TEDSKLITDVLRHFTEAFITGDEHTLKRMADPHVRTEWDGVHLHGWEKFLKFIVTEHRKLGIDHMRVEVDHIESYGDKIHVEGTLVVIINGQEISRHVELVMVKIDGVWLFKSRHFR
Second: DEDTHMMELFNKTLHHVERTGDETLLNKLMDPHARLEIGDKHNHGRENVERERRRLLKELGHTQVEFRIREIRFQGDKLTIHGHTLVNGVHFDIRLLVWKVDGRWHMESFHLE
The protease stability score of the first is lower: 0.706 for the first, 1.46 for the second.

Going from “EEDHEIVEKMLKMLFHSWHTGDEKLFKTLVDPNAKFVIGDKTFHGREFYKFLHDRFDHFRMHDITVRKVEHFDGRLIAHVEIHWRLHIGDKTETEVTESHIIIEKIDGKWRNRSIIVH” to “DEHERLAEIALRLYVHDIRTGDEHRLRKLFDPHVRFVIGDKVYHGWEEMKWILEHIRRELGVKHIKDEDSRHVHLQGDKMYTELRLHVNQGDYETELEVFMVSVKVNGQWLTHSFELR”, the protease stability score falls from 1.76 to 1.21.

First: DEMEEESHTVLKLIVESFRTGDEEEVRHLADPNVRLDVDGQRNHGWKMLLKFFRQIRWHDVELHDIELQGDKMHIIGHVDGNVNGRRRRLDTHILLVKIDGKWRLELVHIH
Second: SEDDERMKKLLSDIWRLLMTGDEELWAKLADPNVRVDVNGRERHGREEVVKLLRELRHERRGRREEHHTVEDFRIYGDYSEVDYRYWVVFNGQREDVTMHIHIQVVNGRLKEIEIKMR
The protease stability score of the first is higher: 1.55 for the first, 1.51 for the second.

Going from “TEEEKFAEEMLRRFIENLITGDWRELKKLFDPDTKIVFNGREHHGMEWHIEFLREIRITHIEVRDMTLINGVAHANGHEIIIIGDKTLEMDTRINIVTINGRIHSIEIKQR” to “RHEEEVLEHWMRLYIEALLTGDEHTLHRLLDPNAKVHIDGRDVVGREEIVRWLREFWNEIRIKHLTISDLKIYGEYVHITGTLNVQVNGQTEHRRIEIDLVIIDGVFKESEVRIH”, the protease stability score falls from 2.54 to 2.39.

First: TEEEEILREAYELFFKMMKTGDEHMKSRLADPNVRLHIGDKENHGMDEVIRVFREEHKRYKNLTLRHWHLEDSHVVNGRIILHYKMNVEVNGVEIETSVHVVIRKINGKWELESLSVE
Second: SEESEKLERMMRLIMHLLWTGDEETFKRLADPDTRFIYGDFEVHGREDVSRMWIKLLNELRIHSLHVEEVHTIDGRIHAKTEVDGRYNGQHERTKLELIIVIINGRIHTVEIRPK
The protease stability score of the first is lower: 0.882 for the first, 1.22 for the second.

Going from “TEEDELAHRFWELIRTSFLTGDEESLERLADPNVRLEIGDKELHGREQFSHIMREFVERFKNLRVRVEEERVVGDKAESIEDFHFNGQNLKVLTIVKKINGKWVIKSIVIKIE” to “HHDEELSEHMAHNWLEALLTGDEDMLRELADPHVRYRFNGRQEIGWEHLLRFVNEIRIHELEPRHIQIDLVNGQVHVHIEGTIDGRIGDKDDRRRTTIVLNIRKINGKWILESISMEVE”, the protease stability score falls from 1.7 to 1.68.

Going from “DEEHEKLYQDLEYWVKMVRTGDEDSHLEYADPDVRLDVNGQQFIGREEFTRFFRTLSRELGLDNINFRIKDIRNVGDKIDIDGHREINGRRVRIILVAWKFNGRWYLHEERIR” to “DHEERIISEQLKIELESTATGDESTLEELVDPTTKININGKHLHGRESILKLLVEYARRADHIEIRPEHVEVYGNKLIIHGEIRIEVGDKRHSTKVLLILRKVNGRWRLTEEKWD”, the protease stability score rises from 1.39 to 1.65.

First: SREEEEATHAVNRWMQLFITGDEESLRELADPDDRINIDGKDFHGREEFEMFMRLFVERFKNLRVELEDTRITVQGDKITVRFKIHFNINGVQTKTEVIIFSTKVNGRWHFKSEEVRHR
Second: DEDEEISHRMVRLIMQLMVTGDEESLKEYFDPNTRLFIDGRNNHGRELAVDEIQKHFEELGVDHIEIRIHHKDAQGDFVEIHIRLIIHVGDFEVRSTVHIFVRKVDGRWMIEKIEIK
The protease stability score of the first is lower: 0.415 for the first, 2.03 for the second.

Compared with “EEERRDAEIALTVIEHHWETGDEKDLDEMLDPDVRVIINGQRYHGREWLSRFREDLGATYHDVHVDDIRIYDGRVEMDFHVRGKVGDKERDTRVRIFMIKFDGRWVVEQITLE”, “NEDHDVLNDLMTDHVHAVLTGDFRTLIHNIDPHTRVDINGVHFHGREEAVHLFEDLANRVPGVKLDVEEWRTYGDKLRSNVRWHFDGRTIDIHLVFLKINGKWLLESVKIN” is lower in protease stability score: 1.95 for the first, 1.9 for the second.

Going from “SEEDEEIHRNLRILVEAIHTGDETTMSKLIDPHARLKVGDKDHHGREKMTEFLIELGIDHIVFRRTRIINGRAEHHGHIKVGDKKMETRIISDKIDGKWIITEVIIH” to “SEEEKILDKLMELLSRLVHTGDEKEWADLMDPDTKLHVGDKTYIGMEKVTEFLHEMRVHHLELHDKRVIGDKARVHTNLRGVIDGRDVNLETHMIITKINGKWVIHSVEVR”, the protease stability score falls from 1.51 to 1.02.

Compared with “SEDEEIHRKMFEDILHALRTGDWRELKHNLDPNVRLEVDGREIHGWEEVVKFLHEARVEHIEMRIRHVEFQGEKIISHRHMIFHKDVNGVRVDQRHDFTTIILKVNGRWRYHSIKID”, “REEEKKLEDIVKKLLEAWETGDEDFLIEMADPDTRVEFEAENHHEHRVGWENMIHWTHEVHRHLGVKHLMIDSSTIIGEKVHIDGTMNINGREVKIRIIIEIVDGRVKKIKIIVH” is higher in protease stability score: 1.36 for the first, 1.71 for the second.

First: DEQEEKLERMYKLWLELHRTGDEEILTELIDPTARLEVGDKSFHGREILIEWFHRELKRIDHKEVRERHIEIQGEWLHAEIEVIIIVNGREIRITTELIIVTINGKIKSINIKIR
Second: SEDAEYIKEFAELFFRWWITGDEEHLRSLADPHTRSDVNGRDIHGMELWSKMLLDHLTKIKNVRYTLREVRFFENHTELDMKVDINGKEMKFSIRVSLINGRLHSITVRLHSE
The protease stability score of the first is higher: 2.23 for the first, 1.35 for the second.

Compared with “DHEEEIAQKAFTDWHHALLTGDWERHEEMFDPDVREDINGVDLHGRELIVKQVRRDLQDFGIKHFEIRIRRLSFQGNKVIFDGIIIFHVDGREERFHVRVLFRKINGVWYLHSRFLH”, “SEEEHELDHIAKEFLRVYLTGDEDELRKLMDPNARVDINGREMIGMELILKDLRDRLEHLGIKHSHITIREVQNFDGQIHIRGHIRIEIGNKRLEFDSRIIMHVIDGRLRSFHVIFI” is higher in protease stability score: 1.06 for the first, 1.92 for the second.

Compared with “SEEEEEARKAFDDFYKSLETGDEEDLSKMIDPHVRIDINGREVHGREYAQTFWRDLIEKVKNLTLHLRDFRVIDGRLHSKMEIHQGEFHTEVNIHSKKINGRWLVQTFEFR”, “HEDKKSLEDFLELLLHAIATGDEEILRHLLDPNVRLDIDGRHVVGREELLRWFREIRVKRSDIRIDHFHVQGDKIHADVTDLYDGEFNGKRHLMVLKTELILVKFNGRWHIRTMHFH” is higher in protease stability score: 1.84 for the first, 2.23 for the second.

Compared with “DEEEKLVRYLRELMKKAWLTGDEDYIRKLMDPDTWFIYGDKHWHGMEEVTKAFEYLLHHLRIEHSIDRHVSIIGNKVHIDGEVDVTIGEKRDRRRQEIILIIVDGRIKTIEFHER”, “DEDEHRTKYWMQILIEVFKTGDWRRLWELFDPNVRLDINGKDSHGRRDMVRVFEEELRHMGINHIELRDFEIQGEKAIVHMTINVDGRRHELELIFLVVDGRVKEIRVHER” is higher in protease stability score: 0.942 for the first, 1.88 for the second.

Going from “SEDEHLTRNLAKDTIRALETGDEDRLNELFDPDVRLEIGDFMSHGRKSFTDTLRRFKNLTLHIHDMRVIGDKVHIDGEVDWNGQRRKTEIIIVIVDGKLKQIHYNIH” to “SEDEELVHHIIKLWLESLVTGDERVFEELADPNVLLVVGEKTHHGRELYSEMFEILVTEIRFHEVHIRHYRHQGDKVKLDLRIDGEIDGQKTHDKAHIILHKIDGRWQLRSMIIH”, the protease stability score rises from 0.874 to 1.33.

Compared with “DEDEKMLREYQRLFEEASKTGDWEHMVKLLDPDVRIRIGDKDIVGREHVLEQKKRHEDHLGIDRVNIKLVIRDERHQGEKIFLDGEFIMHFNGRTYRQHVTIILTKINGRWWIESIEIR”, “DHHEETIRHFAKLWVELWLTGDEKSLQTLADPHVRVHINGVDLHGRDAIHHFLRRIEERYKGLRIDVEEQRIVNGRTEMITEIHIGDKVWRTRLHVVVVDGRIHELSFKDE” is higher in protease stability score: 1.19 for the first, 2.25 for the second.

Going from “DEHNKLAILIVEILWHLWETGNEEELVKLADPNYKHDVNGKISVGREEFEKTTHYLLNHLRFKHRHVRDEKVQGNKFHVDGQLNIDVNGREVRFDLRVVYIIVNGRLRSEHIDIV” to “DDWEEEVHKFSRLFIKSVETGDEDTLHKFADPNVMLHQGDKEYHGREMFVRWSNELLRHLGVSKVRARMHDDKAYNGVVHLDLENRFNGRTVRIEVRIEKINGKWLMTEVRIE”, the protease stability score falls from 1.71 to 0.622.

First: SEDVRDAHEMARIFLEVFRTGNEHHHERMMDPHARVRFDGVDHHGREESTKLLLELWRRVDHLHMDITDLRVQGDKVEVHIRLENRYNGRTHIIHVHLVMIKVDGRWVIREIHFD
Second: DEDHEISKRALEQWIHDLHTGDEDTLRKFADPNARMEVDGVEHHGMELAMRILLRIDVTEIRIKDMRIVDGRVEIDGEVRDKVNGKTRESRVHLYVLKVDGRWVMESITIQ
The protease stability score of the first is higher: 0.752 for the first, 0.476 for the second.

First: SEHEDMFREMAELLLESLVTGDFRQLKRLADPHMRLKINGKDTHGREEFSRVFKELDDELGVDHIEIKHLRVQGDKIHIHGKMHFDGRWHERHVDVEIFNGVVRHHRVEIR
Second: TEEEHLMKEMLDLWVEALMTGDEKLLSELMDPNTRFHLRYGDFLQDRHGRHIINHIIRHWRFHVFKIEDTKVFNGRAIADTHLDVEIDGRRVRTRTKVDLVTINGKIERLDLEID
The protease stability score of the first is higher: 1.3 for the first, 0.902 for the second.

Compared with “DEEEEMVREVLHRVIHNILTGDEDSVSRMADPHVRVKEIINGKEFTLHGREMMLHMIREWRNRADHVEIHIRRSRVINGRLDSHGLLIIEINGKEIRHDTNLHLYVVDGVIKILTWNIE”, “SEDEEETRESLELLMRSLKTGDEHQIRRMFDPDALTVIDGREFHGRERATHAMREWKREIRIKEIRIRDWKTQGEKVHLDIEVVTEVNGVEDRREVKLLLIKVNGRWFIHSIHIH” is lower in protease stability score: 1.45 for the first, 1.43 for the second.

Going from “DEEKEISELLFRLIFHMLETGDEELSRRLLDPNTRTIWNGRHLHGREASELMRRILHHFVKGATTEIKDLKVQGDWMHFHVTIHIGDKRIRTEIIVHTIDGRIDSMEFRVT” to “HDQDESAKWVIEVLIRASYTGDFDMFIKYFDPNAKSLIDGKTFHGREDLKRHMDRFDHITHVRFHLRDRKMVGDKLIIHGQLEVHGYQGDWEIHMTRDVHIILRKVDGRWHIEELRLE”, the protease stability score rises from 1.39 to 2.18.

Compared with “SEDEDFAKKWTDEILTAFLTGDWKLLSDLVDPNVRVIYGEFHFHGREQTIKWLEHHYREIRIHDYKIKHIEVQGEKVIVDGEVDRHYNGRRHRIHTEIIIIIFNGVIREIEFREN”, “SEEEKKSKDALRFLEEVWKTGDWDDFRKMIDPHVRIEVNGRTYHGMEDAEKFARDLLKRVKNMKVSIRHIETQGDKMIVHGELNIDGVHSEIQIFTDKIDGRWLLKEVNFI” is lower in protease stability score: 2.05 for the first, 0.498 for the second.

Compared with “DEVEKSVKEWVNIVIHWLKTGNEEEILKYADPNVRLNVNGVNYVGRENAEHASREHLHELGIKHEEQKDVKIHSINGRMLLIIHMRLEYDGQHHEVTIIVRTIKINGRWHIHEVEIRND”, “TEEDHKAFTMVELFLNALTTGDERTLEKLVDPNVRVNIDGRDVHGMSILIRWREHLRFEFREVNNKRSELQGEKLHVDSEVDRHIRIGDKEDREHIRIHFHLLKINGRWFIEEVRML” is higher in protease stability score: 1.21 for the first, 1.36 for the second.

“SDLNQVFRESLEHHLHALETGDWRELYRLADPNVLVIVGDKEIHGMEEWSRILEEEMRRVKGMRIEINPTDIDFQGNKVRAHTRLHVEVDGRSVETDTEHESKKVNGRWILKRLTIR” and “SEKETLDQHIARLWVHYWLTGDEDQLHRLADPNVRSIVDGKHVHGMERMLTELKRMRERFDHMHIEIHDIKVFDGVIHIDTTLHVQINGVHRSWESRIIIYLINGRVHSVEIRIL” are the same in protease stability score: 1.16 for the first, 1.16 for the second.
